{"source": "paper PMC4434323", "key": {"[1]": {"target": "T1, B0310.2 (B0310.2) (Caenorhabditis elegans) (UniProt Q10938)", "T1 sequence": "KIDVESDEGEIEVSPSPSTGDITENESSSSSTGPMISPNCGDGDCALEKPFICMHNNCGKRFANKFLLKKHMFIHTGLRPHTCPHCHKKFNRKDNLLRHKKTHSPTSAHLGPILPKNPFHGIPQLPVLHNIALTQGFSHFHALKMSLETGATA"}, "[2]": {"target": "T2, die-1 (C18D1.1) (Caenorhabditis elegans) (UniProt A0A131MCR4)", "T2 sequence": "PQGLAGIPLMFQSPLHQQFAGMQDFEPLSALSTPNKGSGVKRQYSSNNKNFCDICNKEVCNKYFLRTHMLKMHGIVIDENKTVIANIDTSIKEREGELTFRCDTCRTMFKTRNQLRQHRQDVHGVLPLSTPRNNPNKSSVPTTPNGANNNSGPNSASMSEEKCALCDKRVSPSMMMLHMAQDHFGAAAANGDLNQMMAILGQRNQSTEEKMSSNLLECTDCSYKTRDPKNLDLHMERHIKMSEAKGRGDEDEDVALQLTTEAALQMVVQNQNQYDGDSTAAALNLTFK"}, "[3]": {"target": "odd-2 (C34H3.2) (Caenorhabditis elegans) (UniProt Q9N5X6)", "sequence (Q9N5X6 74-252)": "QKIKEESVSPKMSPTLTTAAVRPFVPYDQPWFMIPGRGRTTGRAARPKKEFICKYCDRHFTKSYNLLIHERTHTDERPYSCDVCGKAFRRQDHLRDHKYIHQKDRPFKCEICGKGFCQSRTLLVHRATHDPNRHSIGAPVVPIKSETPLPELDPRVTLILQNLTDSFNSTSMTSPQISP"}, "[4]": {"target": "T3, ham-2 (C07A12.1) (Caenorhabditis elegans) (UniProt H2KYH4)", "T3 sequence": "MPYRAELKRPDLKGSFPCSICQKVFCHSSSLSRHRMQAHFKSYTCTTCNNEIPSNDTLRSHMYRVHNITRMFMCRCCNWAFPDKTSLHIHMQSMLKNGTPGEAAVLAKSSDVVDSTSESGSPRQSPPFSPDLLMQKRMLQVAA"}, "[5]": {"target": "T4, ztf-29 (Y66D12A.12) (Caenorhabditis elegans) (UniProt Q95Q03)", "T4 sequence": "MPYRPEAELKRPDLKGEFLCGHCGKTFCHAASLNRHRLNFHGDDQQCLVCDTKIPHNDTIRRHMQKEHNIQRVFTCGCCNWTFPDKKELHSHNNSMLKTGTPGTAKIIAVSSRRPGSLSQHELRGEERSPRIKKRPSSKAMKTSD"}, "[6]": {"target": "T5, ZK337.2 (ZK337.2) (Caenorhabditis elegans) (UniProt O46016)", "T5 sequence": "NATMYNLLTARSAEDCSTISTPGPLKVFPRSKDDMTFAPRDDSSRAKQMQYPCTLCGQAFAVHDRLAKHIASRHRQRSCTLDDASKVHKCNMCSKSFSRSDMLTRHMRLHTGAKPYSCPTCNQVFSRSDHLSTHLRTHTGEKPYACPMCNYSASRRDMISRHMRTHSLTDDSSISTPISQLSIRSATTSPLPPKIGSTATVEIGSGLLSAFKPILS"}, "[7]": {"target": "ZC328.2 (ZC328.2) (Caenorhabditis elegans) (UniProt O02050)", "sequence (O02050 entry or part of it)": "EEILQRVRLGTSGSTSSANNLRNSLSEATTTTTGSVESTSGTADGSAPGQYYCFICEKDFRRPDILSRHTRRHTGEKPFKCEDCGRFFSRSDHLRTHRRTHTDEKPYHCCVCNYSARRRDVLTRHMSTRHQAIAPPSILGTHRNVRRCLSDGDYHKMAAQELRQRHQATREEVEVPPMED"}, "[8]": {"target": "egrh-1 (C27C12.2) (Caenorhabditis elegans) (UniProt Q18250)", "sequence (Q18250 324-461)": "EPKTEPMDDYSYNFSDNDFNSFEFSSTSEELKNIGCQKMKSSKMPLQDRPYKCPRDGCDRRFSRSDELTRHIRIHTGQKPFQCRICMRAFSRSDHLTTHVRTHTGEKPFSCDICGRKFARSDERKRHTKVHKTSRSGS"}, "[9]": {"target": "T6, zip-3 (W07G1.3) (Caenorhabditis elegans) (UniProt Q9XUK2)", "T6 sequence": "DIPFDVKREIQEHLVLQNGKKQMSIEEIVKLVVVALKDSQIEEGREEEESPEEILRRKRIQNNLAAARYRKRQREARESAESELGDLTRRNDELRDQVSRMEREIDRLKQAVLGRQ"}, "[10]": {"target": "T7, skn-1 (T19E7.2) (Caenorhabditis elegans) (UniProt P34707)", "T7 sequence": "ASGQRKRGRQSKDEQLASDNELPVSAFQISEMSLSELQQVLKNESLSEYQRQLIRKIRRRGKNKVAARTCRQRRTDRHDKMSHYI"}, "[11]": {"target": "atf-7 (C07G2.2) (Caenorhabditis elegans) (UniProt Q86MD3)", "sequence (Q86MD3 339-508)": "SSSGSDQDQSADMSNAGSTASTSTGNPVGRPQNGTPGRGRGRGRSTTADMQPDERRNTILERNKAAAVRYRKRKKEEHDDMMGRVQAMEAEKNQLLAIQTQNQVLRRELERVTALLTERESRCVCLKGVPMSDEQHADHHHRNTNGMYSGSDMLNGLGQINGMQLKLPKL"}, "[12]": {"target": "T8, atf-5 (T04C10.4) (Caenorhabditis elegans) (UniProt Q22156)", "T8 sequence": "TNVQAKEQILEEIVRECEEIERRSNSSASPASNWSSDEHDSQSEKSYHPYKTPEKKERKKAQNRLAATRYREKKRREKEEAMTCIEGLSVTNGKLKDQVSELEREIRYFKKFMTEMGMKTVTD"}}}
{"sequence": "ATGAGGGA (double strand) [8-mer ATGAGGGA]", "values": [{"measurement": "binding signal (PBM E-score (-0.5 to 0.5))", "setting": "[1]", "result": 0.478}]}
{"sequence": "GTTTTAAA (double strand) [8-mer GTTTTAAA]", "values": [{"measurement": "binding signal (PBM E-score (-0.5 to 0.5))", "setting": "[2]", "result": 0.478}]}
{"sequence": "AGCTACTG (double strand) [8-mer AGCTACTG]", "values": [{"measurement": "binding signal (PBM E-score (-0.5 to 0.5))", "setting": "[3]", "result": 0.492}]}
{"sequence": "ATGAGGTA (double strand) [8-mer ATGAGGTA]", "values": [{"measurement": "binding signal (PBM E-score (-0.5 to 0.5))", "setting": "[1]", "result": 0.484}]}
{"sequence": "TGAGGTAA (double strand) [8-mer TGAGGTAA]", "values": [{"measurement": "binding signal (PBM E-score (-0.5 to 0.5))", "setting": "[1]", "result": 0.49}]}
{"sequence": "AAGCTTAC (double strand) [8-mer AAGCTTAC]", "values": [{"measurement": "binding signal (PBM E-score (-0.5 to 0.5))", "setting": "[4]", "result": 0.489}, {"measurement": "binding signal (PBM E-score (-0.5 to 0.5))", "setting": "[5]", "result": 0.485}]}
{"sequence": "GAACCTCA (double strand) [8-mer GAACCTCA]", "values": [{"measurement": "binding signal (PBM E-score (-0.5 to 0.5))", "setting": "[1]", "result": 0.48}]}
{"sequence": "TACCTCAA (double strand) [8-mer TACCTCAA]", "values": [{"measurement": "binding signal (PBM E-score (-0.5 to 0.5))", "setting": "[1]", "result": 0.495}]}
{"sequence": "TTTAAAAA (double strand) [8-mer TTTAAAAA]", "values": [{"measurement": "binding signal (PBM E-score (-0.5 to 0.5))", "setting": "[2]", "result": 0.48}]}
{"sequence": "TAAGCTTA (double strand) [8-mer TAAGCTTA]", "values": [{"measurement": "binding signal (PBM E-score (-0.5 to 0.5))", "setting": "[4]", "result": 0.497}, {"measurement": "binding signal (PBM E-score (-0.5 to 0.5))", "setting": "[5]", "result": 0.496}]}
{"sequence": "AATTTAAA (double strand) [8-mer AATTTAAA]", "values": [{"measurement": "binding signal (PBM E-score (-0.5 to 0.5))", "setting": "[2]", "result": 0.497}]}
{"sequence": "CCCACGCA (double strand) [8-mer CCCACGCA]", "values": [{"measurement": "binding signal (PBM E-score (-0.5 to 0.5))", "setting": "[6]", "result": 0.488}, {"measurement": "binding signal (PBM E-score (-0.5 to 0.5))", "setting": "[7]", "result": 0.497}, {"measurement": "binding signal (PBM E-score (-0.5 to 0.5))", "setting": "[8]", "result": 0.496}]}
{"sequence": "CGGTAGCC (double strand) [8-mer CGGTAGCC]", "values": [{"measurement": "binding signal (PBM E-score (-0.5 to 0.5))", "setting": "[3]", "result": 0.485}]}
{"sequence": "TTAGCTAA (double strand) [8-mer TTAGCTAA]", "values": [{"measurement": "binding signal (PBM E-score (-0.5 to 0.5))", "setting": "[4]", "result": 0.483}]}
{"sequence": "CGCTACCG (double strand) [8-mer CGCTACCG]", "values": [{"measurement": "binding signal (PBM E-score (-0.5 to 0.5))", "setting": "[3]", "result": 0.488}]}
{"sequence": "ACGGTAGC (double strand) [8-mer ACGGTAGC]", "values": [{"measurement": "binding signal (PBM E-score (-0.5 to 0.5))", "setting": "[3]", "result": 0.498}]}
{"sequence": "AAGCTTAT (double strand) [8-mer AAGCTTAT]", "values": [{"measurement": "binding signal (PBM E-score (-0.5 to 0.5))", "setting": "[4]", "result": 0.487}, {"measurement": "binding signal (PBM E-score (-0.5 to 0.5))", "setting": "[5]", "result": 0.488}]}
{"sequence": "TGCTAGCA (double strand) [8-mer TGCTAGCA]", "values": [{"measurement": "binding signal (PBM E-score (-0.5 to 0.5))", "setting": "[4]", "result": 0.48}]}
{"sequence": "GGTTTAAA (double strand) [8-mer GGTTTAAA]", "values": [{"measurement": "binding signal (PBM E-score (-0.5 to 0.5))", "setting": "[2]", "result": 0.484}]}
{"sequence": "CTTTTAAA (double strand) [8-mer CTTTTAAA]", "values": [{"measurement": "binding signal (PBM E-score (-0.5 to 0.5))", "setting": "[2]", "result": 0.47}]}
{"sequence": "GCCCCCAC (double strand) [8-mer GCCCCCAC]", "values": [{"measurement": "binding signal (PBM E-score (-0.5 to 0.5))", "setting": "[8]", "result": 0.486}]}
{"sequence": "ATTTTAAA (double strand) [8-mer ATTTTAAA]", "values": [{"measurement": "binding signal (PBM E-score (-0.5 to 0.5))", "setting": "[2]", "result": 0.496}]}
{"sequence": "ACCTCAAA (double strand) [8-mer ACCTCAAA]", "values": [{"measurement": "binding signal (PBM E-score (-0.5 to 0.5))", "setting": "[1]", "result": 0.481}]}
{"sequence": "AAGCTAGC (double strand) [8-mer AAGCTAGC]", "values": [{"measurement": "binding signal (PBM E-score (-0.5 to 0.5))", "setting": "[4]", "result": 0.476}]}
{"sequence": "CGTCATCA (double strand) [8-mer CGTCATCA]", "values": [{"measurement": "binding signal (PBM E-score (-0.5 to 0.5))", "setting": "[9]", "result": 0.489}, {"measurement": "binding signal (PBM E-score (-0.5 to 0.5))", "setting": "[10]", "result": 0.492}]}
{"sequence": "CCCCCGCA (double strand) [8-mer CCCCCGCA]", "values": [{"measurement": "binding signal (PBM E-score (-0.5 to 0.5))", "setting": "[6]", "result": 0.494}, {"measurement": "binding signal (PBM E-score (-0.5 to 0.5))", "setting": "[7]", "result": 0.497}, {"measurement": "binding signal (PBM E-score (-0.5 to 0.5))", "setting": "[8]", "result": 0.495}]}
{"sequence": "AGGGGGCG (double strand) [8-mer AGGGGGCG]", "values": [{"measurement": "binding signal (PBM E-score (-0.5 to 0.5))", "setting": "[8]", "result": 0.486}]}
{"sequence": "CTACCTCA (double strand) [8-mer CTACCTCA]", "values": [{"measurement": "binding signal (PBM E-score (-0.5 to 0.5))", "setting": "[1]", "result": 0.484}]}
{"sequence": "ACGTCATA (double strand) [8-mer ACGTCATA]", "values": [{"measurement": "binding signal (PBM E-score (-0.5 to 0.5))", "setting": "[9]", "result": 0.493}, {"measurement": "binding signal (PBM E-score (-0.5 to 0.5))", "setting": "[11]", "result": 0.497}, {"measurement": "binding signal (PBM E-score (-0.5 to 0.5))", "setting": "[12]", "result": 0.464}]}
{"sequence": "ACTTTAAA (double strand) [8-mer ACTTTAAA]", "values": [{"measurement": "binding signal (PBM E-score (-0.5 to 0.5))", "setting": "[2]", "result": 0.493}]}
{"sequence": "CAGTAGCC (double strand) [8-mer CAGTAGCC]", "values": [{"measurement": "binding signal (PBM E-score (-0.5 to 0.5))", "setting": "[3]", "result": 0.492}]}
